Results taken from patent publication US20140087995A1 (published 2014).
Numbered stars: 1 amine (or outer) side, 2 acyl side, 3 side chain; on linkers, the order of the positions; unused ones are H or OH. Bridge positions count the residues as written; N and C are the ends. Side chains are listed from the residue outwards. Ends that are not written are not given here. * marks the point of attachment. C20 diacid = O=C(O)CCCCCCCCCCCCCCCCCCC(=O)*; γGlu = O=C(O)[C@H](CCC(=O)[*:2])N[*:1]; AEEA = NCCOCCOCC(=O)O

T1: human amylin receptor (amylin 3(a) receptor: human calcitonin receptor plus RAMP-3) (human, UniProt P30988 25-474; O60896 24-148, limits assumed)
T1 sequence (looked up) 1: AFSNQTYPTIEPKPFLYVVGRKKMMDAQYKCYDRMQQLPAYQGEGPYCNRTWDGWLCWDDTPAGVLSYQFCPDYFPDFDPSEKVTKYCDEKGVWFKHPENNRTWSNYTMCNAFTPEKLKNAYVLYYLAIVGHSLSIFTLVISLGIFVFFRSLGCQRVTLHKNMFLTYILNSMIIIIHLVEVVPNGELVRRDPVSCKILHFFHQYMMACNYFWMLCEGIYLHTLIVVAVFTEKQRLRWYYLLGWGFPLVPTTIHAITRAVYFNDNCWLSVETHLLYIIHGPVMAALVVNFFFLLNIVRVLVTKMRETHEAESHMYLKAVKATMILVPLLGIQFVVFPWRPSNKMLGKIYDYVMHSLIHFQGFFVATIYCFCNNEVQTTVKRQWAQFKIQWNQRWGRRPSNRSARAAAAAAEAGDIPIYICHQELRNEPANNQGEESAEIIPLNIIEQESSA
T1 sequence (looked up) 2: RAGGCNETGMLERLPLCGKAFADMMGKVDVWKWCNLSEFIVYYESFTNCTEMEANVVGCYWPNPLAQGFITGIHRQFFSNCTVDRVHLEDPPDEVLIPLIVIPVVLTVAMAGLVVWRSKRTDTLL

T2: human calcitonin receptor (human, UniProt P30988 25-474)
T2 sequence (looked up): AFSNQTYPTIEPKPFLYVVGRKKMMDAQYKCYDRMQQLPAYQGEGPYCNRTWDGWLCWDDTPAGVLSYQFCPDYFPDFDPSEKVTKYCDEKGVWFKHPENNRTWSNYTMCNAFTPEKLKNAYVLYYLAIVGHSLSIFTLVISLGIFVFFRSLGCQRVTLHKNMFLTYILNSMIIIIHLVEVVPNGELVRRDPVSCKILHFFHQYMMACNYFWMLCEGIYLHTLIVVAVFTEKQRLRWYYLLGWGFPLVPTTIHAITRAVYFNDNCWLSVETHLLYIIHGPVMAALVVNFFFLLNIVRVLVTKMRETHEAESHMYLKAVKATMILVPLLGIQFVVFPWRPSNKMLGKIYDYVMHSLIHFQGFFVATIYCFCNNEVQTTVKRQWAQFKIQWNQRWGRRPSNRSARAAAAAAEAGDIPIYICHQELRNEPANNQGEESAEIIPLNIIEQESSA


What was measured:
[1] = biological target: T1, human amylin receptor (amylin 3(a) …); experiment: cell-based or functional assay
[2] = biological target: T2, human calcitonin receptor; experiment: cell-based or functional assay

Binder | Ratio hCT/hAmylin funct. [1] [ratio] | hAmylin-R funct. EC50 [1] [nM] | hCTR funct. EC50 [2] [nM]
K([AEEA-γGlu-C20 diacid])CNTATCATQRLANFLRHSSPNFGAIPSSTNVGPNTY-NH2 (disulfide 2-7; N-terminus assumed; SMILES CC[C@H](C)[C@H](NC(=O)[C@H](C)NC(=O)CNC(=O)[C@H](Cc1ccccc1)NC(=O)[C@H](CC(N)=O)NC(=O)[C@@H]1CCCN1C(=O)[C@H](CO)NC(=O)[C@H](CO)NC(=O)[C@H](Cc1c[nH]cn1)NC(=O)[C@H](CCCNC(=N)N)NC(=O)[C@H](CC(C)C)NC(=O)[C@H](Cc1ccccc1)NC(=O)[C@H](CC(N)=O)NC(=O)[C@H](C)NC(=O)[C@H](CC(C)C)NC(=O)[C@H](CCCNC(=N)N)NC(=O)[C@H](CCC(N)=O)NC(=O)[C@@H](NC(=O)[C@H](C)NC(=O)[C@@H]1CSSC[C@H](NC(=O)[C@@H](N)CCCCNC(=O)COCCOCCNC(=O)CC[C@H](NC(=O)CCCCCCCCCCCCCCCCCCC(=O)O)C(=O)O)C(=O)N[C@@H](CC(N)=O)C(=O)N[C@@H]([C@@H](C)O)C(=O)N[C@@H](C)C(=O)N[C@@H]([C@@H](C)O)C(=O)N1)[C@@H](C)O)C(=O)N1CCC[C@H]1C(=O)N[C@@H](CO)C(=O)N[C@@H](CO)C(=O)N[C@H](C(=O)N[C@@H](CC(N)=O)C(=O)N[C@H](C(=O)NCC(=O)N1CCC[C@H]1C(=O)N[C@@H](CC(N)=O)C(=O)N[C@H](C(=O)N[C@@H](Cc1ccc(O)cc1)C(N)=O)[C@@H](C)O)C(C)C)[C@@H](C)O, Synthetic acylated analogue of human amylin; also called compound 50) | 17.4 | 0.038 | 0.662
K([γGlu-C20 diacid])CNTATCATQRLANFLRHSSPNFGAIPSSTNVGSETY-NH2 (disulfide 2-7; N-terminus assumed; SMILES CC[C@H](C)[C@H](NC(=O)[C@H](C)NC(=O)CNC(=O)[C@H](Cc1ccccc1)NC(=O)[C@H](CC(N)=O)NC(=O)[C@@H]1CCCN1C(=O)[C@H](CO)NC(=O)[C@H](CO)NC(=O)[C@H](Cc1c[nH]cn1)NC(=O)[C@H](CCCNC(=N)N)NC(=O)[C@H](CC(C)C)NC(=O)[C@H](Cc1ccccc1)NC(=O)[C@H](CC(N)=O)NC(=O)[C@H](C)NC(=O)[C@H](CC(C)C)NC(=O)[C@H](CCCNC(=N)N)NC(=O)[C@H](CCC(N)=O)NC(=O)[C@@H](NC(=O)[C@H](C)NC(=O)[C@@H]1CSSC[C@H](NC(=O)[C@@H](N)CCCCNC(=O)CC[C@H](NC(=O)CCCCCCCCCCCCCCCCCCC(=O)O)C(=O)O)C(=O)N[C@@H](CC(N)=O)C(=O)N[C@@H]([C@@H](C)O)C(=O)N[C@@H](C)C(=O)N[C@@H]([C@@H](C)O)C(=O)N1)[C@@H](C)O)C(=O)N1CCC[C@H]1C(=O)N[C@@H](CO)C(=O)N[C@@H](CO)C(=O)N[C@H](C(=O)N[C@@H](CC(N)=O)C(=O)N[C@H](C(=O)NCC(=O)N[C@@H](CO)C(=O)N[C@@H](CCC(=O)O)C(=O)N[C@H](C(=O)N[C@@H](Cc1ccc(O)cc1)C(N)=O)[C@@H](C)O)C(C)C)[C@@H](C)O, Synthetic acylated analogue of human amylin; also called compound 27) [N^ε1-[(4S)-4-carboxy-4-(19-carboxynonadecanoylamino)butanoyl]-[Arg17,Pro21,Pro27,Glu35]-h-amylin] | 22.6 | 0.133 | 3
K([γGlu-C20 diacid])CNTATCATQRLANFLRHSSPNFGAIPSSTNVGSKTY-NH2 (disulfide 2-7; N-terminus assumed; SMILES CC[C@H](C)[C@H](NC(=O)[C@H](C)NC(=O)CNC(=O)[C@H](Cc1ccccc1)NC(=O)[C@H](CC(N)=O)NC(=O)[C@@H]1CCCN1C(=O)[C@H](CO)NC(=O)[C@H](CO)NC(=O)[C@H](Cc1c[nH]cn1)NC(=O)[C@H](CCCNC(=N)N)NC(=O)[C@H](CC(C)C)NC(=O)[C@H](Cc1ccccc1)NC(=O)[C@H](CC(N)=O)NC(=O)[C@H](C)NC(=O)[C@H](CC(C)C)NC(=O)[C@H](CCCNC(=N)N)NC(=O)[C@H](CCC(N)=O)NC(=O)[C@@H](NC(=O)[C@H](C)NC(=O)[C@@H]1CSSC[C@H](NC(=O)[C@@H](N)CCCCNC(=O)CC[C@H](NC(=O)CCCCCCCCCCCCCCCCCCC(=O)O)C(=O)O)C(=O)N[C@@H](CC(N)=O)C(=O)N[C@@H]([C@@H](C)O)C(=O)N[C@@H](C)C(=O)N[C@@H]([C@@H](C)O)C(=O)N1)[C@@H](C)O)C(=O)N1CCC[C@H]1C(=O)N[C@@H](CO)C(=O)N[C@@H](CO)C(=O)N[C@H](C(=O)N[C@@H](CC(N)=O)C(=O)N[C@H](C(=O)NCC(=O)N[C@@H](CO)C(=O)N[C@@H](CCCCN)C(=O)N[C@H](C(=O)N[C@@H](Cc1ccc(O)cc1)C(N)=O)[C@@H](C)O)C(C)C)[C@@H](C)O, Synthetic acylated analogue of human amylin; also called compound 35) [N^ε1-[(4S)-4-carboxy-4-(19-carboxynonadecanoylamino)butanoyl]-[Arg17,Pro21,Pro27,Lys35]-h-amylin] | 15 | 0.364 | 5.46
K([γGlu-C20 diacid])CNTATCATQRLAEFLRHSSPNFGAIPSSTNVGSRTY-NH2 (disulfide 2-7; N-terminus assumed; SMILES CC[C@H](C)[C@H](NC(=O)[C@H](C)NC(=O)CNC(=O)[C@H](Cc1ccccc1)NC(=O)[C@H](CC(N)=O)NC(=O)[C@@H]1CCCN1C(=O)[C@H](CO)NC(=O)[C@H](CO)NC(=O)[C@H](Cc1c[nH]cn1)NC(=O)[C@H](CCCNC(=N)N)NC(=O)[C@H](CC(C)C)NC(=O)[C@H](Cc1ccccc1)NC(=O)[C@H](CCC(=O)O)NC(=O)[C@H](C)NC(=O)[C@H](CC(C)C)NC(=O)[C@H](CCCNC(=N)N)NC(=O)[C@H](CCC(N)=O)NC(=O)[C@@H](NC(=O)[C@H](C)NC(=O)[C@@H]1CSSC[C@H](NC(=O)[C@@H](N)CCCCNC(=O)CC[C@H](NC(=O)CCCCCCCCCCCCCCCCCCC(=O)O)C(=O)O)C(=O)N[C@@H](CC(N)=O)C(=O)N[C@@H]([C@@H](C)O)C(=O)N[C@@H](C)C(=O)N[C@@H]([C@@H](C)O)C(=O)N1)[C@@H](C)O)C(=O)N1CCC[C@H]1C(=O)N[C@@H](CO)C(=O)N[C@@H](CO)C(=O)N[C@H](C(=O)N[C@@H](CC(N)=O)C(=O)N[C@H](C(=O)NCC(=O)N[C@@H](CO)C(=O)N[C@@H](CCCNC(=N)N)C(=O)N[C@H](C(=O)N[C@@H](Cc1ccc(O)cc1)C(N)=O)[C@@H](C)O)C(C)C)[C@@H](C)O, Synthetic acylated analogue of human amylin; also called compound 51) | 14 | 0.372 | 5.22
K([γGlu-γGlu-C20 diacid])CNTATCATQRLADFLRHSSPNFGAPLSSTNVGSDTY-NH2 (disulfide 2-7; N-terminus assumed; SMILES CC(C)C[C@H](NC(=O)[C@H](CCCNC(=N)N)NC(=O)[C@H](CCC(N)=O)NC(=O)[C@@H](NC(=O)[C@H](C)NC(=O)[C@@H]1CSSC[C@H](NC(=O)[C@@H](N)CCCCNC(=O)CC[C@H](NC(=O)CC[C@H](NC(=O)CCCCCCCCCCCCCCCCCCC(=O)O)C(=O)O)C(=O)O)C(=O)N[C@@H](CC(N)=O)C(=O)N[C@@H]([C@@H](C)O)C(=O)N[C@@H](C)C(=O)N[C@@H]([C@@H](C)O)C(=O)N1)[C@@H](C)O)C(=O)N[C@@H](C)C(=O)N[C@@H](CC(=O)O)C(=O)N[C@@H](Cc1ccccc1)C(=O)N[C@@H](CC(C)C)C(=O)N[C@@H](CCCNC(=N)N)C(=O)N[C@@H](Cc1c[nH]cn1)C(=O)N[C@@H](CO)C(=O)N[C@@H](CO)C(=O)N1CCC[C@H]1C(=O)N[C@@H](CC(N)=O)C(=O)N[C@@H](Cc1ccccc1)C(=O)NCC(=O)N[C@@H](C)C(=O)N1CCC[C@H]1C(=O)N[C@@H](CC(C)C)C(=O)N[C@@H](CO)C(=O)N[C@@H](CO)C(=O)N[C@H](C(=O)N[C@@H](CC(N)=O)C(=O)N[C@H](C(=O)NCC(=O)N[C@@H](CO)C(=O)N[C@@H](CC(=O)O)C(=O)N[C@H](C(=O)N[C@@H](Cc1ccc(O)cc1)C(N)=O)[C@@H](C)O)C(C)C)[C@@H](C)O, Synthetic acylated analogue of human amylin; also called compound 1) | 12 | 0.224 | 2.7
K([γGlu-γGlu-C20 diacid])CNTATCATQRLADFLRHSSPNFGAIPSSTNVGSDTY-NH2 (disulfide 2-7; N-terminus assumed; SMILES CC[C@H](C)[C@H](NC(=O)[C@H](C)NC(=O)CNC(=O)[C@H](Cc1ccccc1)NC(=O)[C@H](CC(N)=O)NC(=O)[C@@H]1CCCN1C(=O)[C@H](CO)NC(=O)[C@H](CO)NC(=O)[C@H](Cc1c[nH]cn1)NC(=O)[C@H](CCCNC(=N)N)NC(=O)[C@H](CC(C)C)NC(=O)[C@H](Cc1ccccc1)NC(=O)[C@H](CC(=O)O)NC(=O)[C@H](C)NC(=O)[C@H](CC(C)C)NC(=O)[C@H](CCCNC(=N)N)NC(=O)[C@H](CCC(N)=O)NC(=O)[C@@H](NC(=O)[C@H](C)NC(=O)[C@@H]1CSSC[C@H](NC(=O)[C@@H](N)CCCCNC(=O)CC[C@H](NC(=O)CC[C@H](NC(=O)CCCCCCCCCCCCCCCCCCC(=O)O)C(=O)O)C(=O)O)C(=O)N[C@@H](CC(N)=O)C(=O)N[C@@H]([C@@H](C)O)C(=O)N[C@@H](C)C(=O)N[C@@H]([C@@H](C)O)C(=O)N1)[C@@H](C)O)C(=O)N1CCC[C@H]1C(=O)N[C@@H](CO)C(=O)N[C@@H](CO)C(=O)N[C@H](C(=O)N[C@@H](CC(N)=O)C(=O)N[C@H](C(=O)NCC(=O)N[C@@H](CO)C(=O)N[C@@H](CC(=O)O)C(=O)N[C@H](C(=O)N[C@@H](Cc1ccc(O)cc1)C(N)=O)[C@@H](C)O)C(C)C)[C@@H](C)O, Synthetic acylated analogue of human amylin; also called compound 2) | 16.4 | 0.182 | 3
